Data on one protein can be found in FireProtDB (doi:10.1021/bi990893b).

One may read the Tm as the temperature at the midpoint of the melting transition.

The conditions of the data set: Bos taurus; pH 7; Thermal; Absorbance; Sodium phosphate 100 mM; whole UniProt chain shown.

B1: Cytochrome b5 wild type, P00171 (protein)
chain: MAEESSKAVKYYTLEEIQKHNNSKSTWLILHYKVYDLTKFLEEHPGGEEVLREQAGGDATENFEDVGHSTDARELSKTFIIGELHPDDRSKITKPSESIITTIDSNPSWWTNWLIPAISALFVALIYHLYTSEN
Take B1: the Tm is 67.2 °C and the “unfolding enthalpy (van 't Hoff)” value was 95.1 kcal/mol.
